The results in this text go back to patent US20110262366A1.

The target in test [1] is endothelial cell receptor on HAEC (human aortic endothelial cells). The experiment in a line: conjugated fluorescent beads on confluent HAEC, static 30 min, image analysis (Example 2, experiment 1).
The target is the same in test [2]. As to the kind of experiment: competition, 200 ng/ml VEGF121 against 2% BRU-114 microbubbles (competitor) on HAEC, static.
Test [3] has the same target. The experiment in a line: competition, 400 ng/ml VEGF121 against 2% BRU-114 microbubbles (competitor) on HAEC, static.
Test [4] shares this target. The experiment in a line: competition, 100 ng/ml VEGF121 against 2% BRU-114 microbubbles (competitor) on HAEC, static.
The target in test [5] is NP-1/Fc (Neuropilin-1/Fc, R&D Systems). As to the kind of experiment: fluorescence polarization, competition against OG-labeled BRU-326 (competitor) on NP-1/Fc. In general terms: In fluorescence polarisation assays a small probe gives low polarisation when free and higher when bound to something large.
Sequence of NP-1/Fc (Neuropilin-1/Fc, R&D Systems) (Q9QWJ9 22-855): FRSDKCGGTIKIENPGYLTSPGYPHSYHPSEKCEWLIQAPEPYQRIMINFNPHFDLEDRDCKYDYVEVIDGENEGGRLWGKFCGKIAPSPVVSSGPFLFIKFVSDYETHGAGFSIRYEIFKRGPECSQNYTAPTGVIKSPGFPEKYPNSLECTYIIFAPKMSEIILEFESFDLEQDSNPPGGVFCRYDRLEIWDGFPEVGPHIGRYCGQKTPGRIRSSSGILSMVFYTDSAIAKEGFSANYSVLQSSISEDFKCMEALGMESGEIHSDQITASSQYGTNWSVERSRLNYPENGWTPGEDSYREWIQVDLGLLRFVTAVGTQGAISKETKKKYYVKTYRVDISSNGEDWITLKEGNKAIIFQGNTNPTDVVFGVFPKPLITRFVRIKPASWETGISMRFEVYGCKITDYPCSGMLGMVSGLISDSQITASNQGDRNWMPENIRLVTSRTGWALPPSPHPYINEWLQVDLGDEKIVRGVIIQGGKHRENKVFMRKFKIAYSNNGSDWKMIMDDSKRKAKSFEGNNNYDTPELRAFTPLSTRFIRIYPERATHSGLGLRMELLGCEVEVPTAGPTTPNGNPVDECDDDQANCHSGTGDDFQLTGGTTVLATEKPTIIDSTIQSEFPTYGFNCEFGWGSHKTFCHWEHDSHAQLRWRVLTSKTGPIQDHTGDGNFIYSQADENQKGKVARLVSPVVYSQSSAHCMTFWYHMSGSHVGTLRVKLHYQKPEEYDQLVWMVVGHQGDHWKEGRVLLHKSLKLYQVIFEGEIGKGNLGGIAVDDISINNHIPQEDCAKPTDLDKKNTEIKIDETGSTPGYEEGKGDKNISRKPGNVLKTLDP
The target in test [6] is endothelial cell receptor on HAEC (human aortic endothelial cells). As to the kind of experiment: competition, VEGF165 against 5% DPPE-GTKPPR microbubbles (competitor) on HAEC, static.
Test [7] shares this target. The experiment in a line: competition, 6.25 ng/ml VEGF165 against 5% DPPE-GTKPPR microbubbles (competitor) on HAEC, static.
The target is the same in test [8]. The experiment in a line: competition, 200 ng/ml VEGF165 against 2% BRU-114 microbubbles (competitor) on HAEC, static.
The target is the same in test [9]. The experiment in a line: competition, 50 ng/ml VEGF165 against 5% DPPE-GTKPPR microbubbles (competitor) on HAEC, static.
The target is the same in test [10]. The experiment in a line: competition, 25 ng/ml VEGF165 against 2% BRU-114 microbubbles (competitor) on HAEC, static.
Test [11] shares this target. The experiment in a line: competition, 100 ng/ml VEGF165 against 2% BRU-114 microbubbles (competitor) on HAEC, static.
Test [12] shares this target. The experiment in a line: competition, 12.5 ng/ml VEGF165 against 5% DPPE-GTKPPR microbubbles (competitor) on HAEC, static.
The target is the same in test [13]. The experiment in a line: competition, 75 ng/ml VEGF165 against 5% DPPE-GTKPPR microbubbles (competitor) on HAEC, static.
Test [14] has the same target. The experiment in a line: competition, 25 ng/ml VEGF165 against 5% DPPE-GTKPPR microbubbles (competitor) on HAEC, static.
Test [15] shares this target. The experiment in a line: competition, 500 ng/ml KDR/Fc against 5% DPPE-GTKPPR microbubbles (competitor) on HAEC, static.
The target is the same in test [16]. As to the kind of experiment: competition, 125 ng/ml KDR/Fc against 5% DPPE-GTKPPR microbubbles (competitor) on HAEC, static.
The target is the same in test [17]. The experiment in a line: competition, 250 ng/ml KDR/Fc against 5% DPPE-GTKPPR microbubbles (competitor) on HAEC, static.
Test [18] shares this target. The experiment in a line: competition, 2500 ng/ml KDR/Fc against 5% DPPE-GTKPPR microbubbles (competitor) on HAEC, static.
Test [19] shares this target. The experiment in a line: competition, 1000 ng/ml KDR/Fc against 5% DPPE-GTKPPR microbubbles (competitor) on HAEC, static.

Sequence of soluble human KDR/Fc chimera (R&D Systems Inc.) (P35968 20-764, change not shown): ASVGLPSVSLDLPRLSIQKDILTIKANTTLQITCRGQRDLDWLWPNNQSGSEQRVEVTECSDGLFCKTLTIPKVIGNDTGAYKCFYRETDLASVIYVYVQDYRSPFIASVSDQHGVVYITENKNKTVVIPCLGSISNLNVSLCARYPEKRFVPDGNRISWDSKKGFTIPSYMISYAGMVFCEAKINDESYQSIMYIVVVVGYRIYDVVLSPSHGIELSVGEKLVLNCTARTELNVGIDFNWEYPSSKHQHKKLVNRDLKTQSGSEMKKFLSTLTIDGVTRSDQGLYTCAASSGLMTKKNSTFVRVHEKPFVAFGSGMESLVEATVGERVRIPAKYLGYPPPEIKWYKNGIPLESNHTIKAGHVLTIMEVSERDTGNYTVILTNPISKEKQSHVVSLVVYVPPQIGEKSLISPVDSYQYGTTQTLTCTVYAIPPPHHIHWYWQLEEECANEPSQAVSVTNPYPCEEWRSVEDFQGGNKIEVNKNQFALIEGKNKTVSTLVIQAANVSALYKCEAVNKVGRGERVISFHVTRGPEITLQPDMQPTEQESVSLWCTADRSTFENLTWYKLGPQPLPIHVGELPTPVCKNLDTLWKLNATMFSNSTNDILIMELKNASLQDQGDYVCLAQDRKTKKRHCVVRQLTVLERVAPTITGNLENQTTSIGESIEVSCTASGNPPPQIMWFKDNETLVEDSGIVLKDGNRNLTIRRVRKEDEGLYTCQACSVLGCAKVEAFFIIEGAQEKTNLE

In test [1], “BSA-conjugated fluorescent beads (from UniProt P02769 25-607)” had an Integrated density of bound beads (arbitrary units) of 1.61.
On to “VEGF121 (from UniProt P15692 27-147) (ligand)”, for which the Bubbles Bound in presence of competitor worked out at 849 bubbles in test [2], 778 bubbles in test [3] and 878 bubbles in test [4].
Consider “VEGF165 (from UniProt P15692 27-191) (ligand)”, for which the IC50 is 0.2 µM in test [5] and 0.0125 µg/mL in [6]. For the same substance, the Bubbles Bound in presence of competitor in [7] worked out at 1180 bubbles; in test [8] it was 70 bubbles; in [9] it was 226 bubbles; in test [10] it was 144 bubbles; in test [11], 94 bubbles; in [12], 599 bubbles. Further, the results for the Bubbles Bound in presence of competitor in [13] and in test [14] were 190 bubbles and 342 bubbles, respectively.
Regarding “soluble human KDR/Fc chimera (R&D Systems Inc.) (from UniProt P35968 20-764) (Fc fusion)”, the Bubbles Bound in presence of competitor turned out to be 342 bubbles in test [15]; 1030 bubbles in test [16]; 786 bubbles in test [17]; 84 bubbles in test [18]; 75 bubbles in [19].

Broadly, the IC50 is the concentration needed to halve the response being measured.
